Data taken from PMC4499147, “Modulation of LSD1 phosphorylation by CK2/WIP1 regulates RNF168-dependent 53BP1 recruitment in response to DNA damage” (Nucleic Acids Research, 2015).

Legend:
[1] = target: bacterially produced HIS-LSD1 (human, UniProt O60341 1-852); test: pull-down; GST fusion (1 μg) with HIS-tagged fusion (1 μg) in 500 μl NETN buffer (20 mM Tris-HCl pH 8.0, 0.15 M NaCl, 1 mM EDTA, 0.5% NP-40) at 4°C overnight; Glutathione-Sepharose beads; conditions: both partners purified
[2] = target: T1, bacterially produced HIS-RNF168 (human, UniProt Q8IYW5 1-571); test: as above; conditions: both partners purified
T1 construct: E3 ligase RNF168, human; the bacterial construct is not described; source: bacterially produced

B1: bacterially produced GST-53BP1-KBD (domain or fragment, human, UniProt Q12888 1234-1616, looked up)
chain: HVLHRHMRTIREVRTLVTRVITDVYYVDGTEVERKVTEETEEPIVECQECETEVSPSQTGGSSGDLGDISSFSSKASSLHRTSSGTSLSAMHSSGSSGKGAGPLRGKTSGTEPADFALPSSRGGPGKLSPRKGVSQTGTPVCEEDGDAGLGIRQGGKAPVTPRGRGRRGRPPSRTTGTRETAVPGPLGIEDISPNLSPDDKSFSRVVPRVPDSTRRTDVGAGALRRSDSPEIPFQAAAGPSDGLDASSPGNSFVGLRVVAKWSSNGYFYSGKITRDVGAGKYKLLFDDGYECDVLGKDILLCDPIPLDTEVTALSEDEYFSAGVVKGHRKESGELYYSIEKEGQRKWYKRMAVILSLEQGNRLREQYGLGPYEAVTPLTKAAD
notes: The limits 1234-1616 are printed for the 53BP1-KBD cDNA clone put into pcDNA3.0; the bacterial construct itself is not described; source: bacterially produced
Question: Does B1 bind [1]?
Answer: binds

Question: Does B1 bind [2]?
Answer: binds
